Assay results published in US8889408B2, “Factor taking part in transcription control” (Sony Corporation, priority 2002, dated 2014).

Tests used:
[1] = test system: glucocorticoid receptor (GR); assay: GR reporter CAT analysis in GR positive Hela cells; type: cell-based; settings: co-expression of HDART; Hela cells; 10^−8 M dexamethasone
Procedure: Furthermore, the action of HDART on the transcription regulation by glucocorticoid receptor (GR) was analyzed by use of GR reporter plasmid in GR positive Hela cells. The transcription activity of a glucocorticoid response promoter was carried out in the same manner as in the experiment for the retinoic acid receptor except for the use of Hela cells and 10^−8 M of dexamethasone. The results of the measurement are shown in the same manner as shown above.
Next, the influence of the overexpression of N4TPR on the transcription from RAR or a glucocorticoid responsive promoter was checked. It will be noted that this test was made in the same manner as in the reporter analysis set out in Example 4, but using GFP-N4TPR expression vector (0, 0.3 and 0.5 μg).

HDAC3 = HDAC3 (Homo sapiens, UniProt O15379); assay: GST pulldown analysis; type: binding; settings: GST-HDART fused protein versus GST protein
From the text: Further, the direct interaction between HDART and HDAC3 was investigated by GST pulldown analysis. The GST pulldown analysis was essentially carried out according to a known procedure (Tzamarias, D., and Struhl, K. (1995) Genes Dev 9(7), 821-31.). Using TNT (Registered Trademark) in vitro transcription/translation system (Promega), the in vitro translation of HDAC3 was made in the presence of ^35S-methionine. GST protein or GST-HDART fused protein was, respectively, expressed within Escherichia coli, followed by purification in a GST binding buffer solution (50 mM tris-HCl, 200 mM LiCl, 0.5% NP40, 5 mM EDTA, 1 mM PMSF) by use of glutathione sepharose. A binding reaction solution containing GST-HDART fused protein or control GST protein (about 1 μg) and ^35S-radio-labeled in vitro translation product (10 μl) in 1 ml of the GST binding buffer solution was prepared. This reaction solution was incubated at 4° C. for one hour while shaking, after which the resulting the sepharose-GST protein complex was washed five times with the GST binding buffer solution. […] It was confirmed by Coomassie brilliant blue staining that the GST fused protein was equally electrophoresed, and ^35S-radio-labeled HDAC was detected according to autoradiography.

Skip = target: T1, Skip (Homo sapiens, UniProt Q13573); assay: Immunoprecipitation analysis of HDART-Skip interaction in 293 cells; type: binding; design: expressed in transfected cells; host or cells: HEK293 cells
T1 sequence (Q13573 1-536): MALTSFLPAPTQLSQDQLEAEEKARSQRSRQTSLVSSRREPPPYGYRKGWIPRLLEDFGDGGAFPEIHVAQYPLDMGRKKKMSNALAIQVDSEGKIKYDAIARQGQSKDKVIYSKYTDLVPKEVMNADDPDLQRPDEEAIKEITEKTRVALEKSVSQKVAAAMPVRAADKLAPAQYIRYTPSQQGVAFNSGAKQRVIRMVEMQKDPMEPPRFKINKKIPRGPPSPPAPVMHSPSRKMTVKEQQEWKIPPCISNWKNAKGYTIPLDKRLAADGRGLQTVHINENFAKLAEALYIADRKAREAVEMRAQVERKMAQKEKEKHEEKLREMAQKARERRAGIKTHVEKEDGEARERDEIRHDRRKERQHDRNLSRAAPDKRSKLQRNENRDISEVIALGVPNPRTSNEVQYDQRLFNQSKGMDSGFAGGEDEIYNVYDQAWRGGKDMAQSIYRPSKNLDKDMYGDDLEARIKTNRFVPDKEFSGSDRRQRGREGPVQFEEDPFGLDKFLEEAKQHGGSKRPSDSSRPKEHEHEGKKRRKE
Procedure: The interaction between HDART and Skip inside the mammalian cells was confirmed according to the immunoprecipitation analysis. For the confirmation, the Flag-Skip expression vector expressing the Flag-Skip fused protein and the GFP-HDART expression protein expressing the GFP-HDART fused protein (FIG. 4A) were transfected into HEK293 cells by use of Effectene kit (QIAGEN™). It will be noted that a control experiment was conducted such that the Flag-Skip expression vector alone and the GFP-HDART expression vector were, respectively, transfected into cells of the same type under the same conditions.
24 hours after the transfection, the cells were lysed on ice for 30 minutes in a Nonidet P-40 buffer solution (50 mM Tris HCl (pH 7.6), 150 mM NaCl, 5 mM EDTA, 0.5% Nonidet P-40 and 1 mM PMSF) containing 100 μl of a protease inhibitory substance cocktail (Sigma #p8340) to prepare a cell extract (1 mg). This extract was incubated for 30 minutes at 4° C. along with 40 μl of protein A/G sepharose beads for preliminary clarification. Next, the thus clarified supernatant extract was further incubated for 1 hour along with an anti-Flag antibody or a negative control mouse IgG antibody (2 μg), followed by precipitation for 30 minutes by use of 40 μl of protein A/G sepharose beads. […]
Further, the interaction of endogenous HDART and externally introduced Skip was analyzed. […]

Chain of HDAC3 (O15379 whole entry, species assumed, the tested form may be a part): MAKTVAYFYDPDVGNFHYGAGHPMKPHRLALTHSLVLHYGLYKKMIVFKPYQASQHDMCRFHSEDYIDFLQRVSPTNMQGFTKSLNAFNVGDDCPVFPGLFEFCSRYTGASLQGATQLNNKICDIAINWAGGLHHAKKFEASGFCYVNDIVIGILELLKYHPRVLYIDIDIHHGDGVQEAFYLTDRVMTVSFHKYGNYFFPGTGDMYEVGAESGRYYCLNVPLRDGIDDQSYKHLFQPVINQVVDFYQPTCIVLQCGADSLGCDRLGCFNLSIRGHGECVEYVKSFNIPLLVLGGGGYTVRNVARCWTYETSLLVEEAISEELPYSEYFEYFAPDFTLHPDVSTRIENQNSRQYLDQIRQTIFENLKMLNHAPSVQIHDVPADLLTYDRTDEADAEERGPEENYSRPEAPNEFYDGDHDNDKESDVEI

pulldown of in vitro translated HDAC3 (HDAC3): pulled down
co-precipitation of endogenous HDART with Flag-Skip (Skip; 293 cells, anti-Flag antibody): co-precipitated
interaction of foreign HDART (GFP-HDART) with Flag-Skip (Skip; co-expression in 293 cells, immunoprecipitation with anti-Flag antibody): specifically interact
B1: HDART: HDAC associated repressor TPR protein, 855 amino acids, SEQ ID NO: 2; transcription repressing factor, used as fusions or expressed from vector (protein, listed as Homo sapiens)
chain: MVVMARLSRPERPDLVFEEEDLPYEEEIMRNQFSVKCWLRYIEFKQGAPKPRLNQLYERALKLLPCSYKLWYRYLKARRAQVKHRCVTDPAYEDVNNCHERAFVFMHKMPRLWLDYCQFLMDQGRVTHTRRTFDRALRALPITQHSRIWPLYLRFLRSHPLPETAVRGYRRFLKLSPESAEEYIEYLKSSDRLDEAAQRLATVVNDERFVSKAGKSNYQLWHELCDLISQNPDKVQSLNVDAIIRGGLTRFTDQLGKLWCSLADYYIRSGHFEKARDVYEEAIRTVMTVRDFTQVFDSYAQFEESMIAAKMETASELGREEEDDVDLELRLARFEQLISRRPLLLNSVLLRQNPHHVHEWHKRVALHQGRPREIINTYTEAVQTVDPFKATGKPHTLWVAFAKFYEDNGQLDDARVILEKATKVNFKQVDDLASVWCQCGELELRHENYDEALRLLRKATALPARRAEYFDGSEPVQNRVYKSLKVWSMLADLEESLGTFQSTKAVYDRILDLRIATPQIVINYAMFLEEHKYFEESFKAYERGISLFKWPNVSDIWSTYLTKFIARYGGRKLERARDLFEQALDGCPPKYAKTLYLLYAQLEEEWGLARHAMAVYERATRAVEPAQQYDMFNIYIKRAAEIYGVTHTRGIYQKAIEVLSDEHAREMCLRFADMECKLGEIDRARAIYSFCSQICDPRTTGAFWQTWKDFEVRHGNEDTIKEMLRIRRSVQATYNTQVNFMASQMLKVSGSATGTVSDLAPGQSGMDDMKLLEQRAEQLAAEAERDQPLRAQSKILFVRSDASREELAELAQQVNPEEIQLGEDEDEDEMDLEPNEVRLEQQSVPAAVFGSLKED
activation of the reporter gene responding to glucocorticoid [1]: inhibited
